Test [1] addresses sFlt-1 (soluble splice variant of VEGF receptor 1) in human serum (human) (UniProt P17948). Kind of test: cell-based or functional assay.
Test [2] shares this target. Kind of test: adsorption of sFlt-1 from human serum on ligand column (agarose), sFlt-1 ELISA of flow through. (In an ELISA, binding on a coated surface is turned into a signal by an enzyme label.)
Test [3] shares this target. The test can be described thus: adsorption of sFlt-1 from preeclampsia patient serum on agarose column, sFlt-1 ELISA before and after.
Test [4] shares this target. The test can be described thus: single run of serum of 10 preeclampsia patients over scVEGF^165 column, sFlt-1 ELISA before and after.
Test [5] addresses T1, VEGF-Trap (chimeric protein of VEGFR-1 domain 2 and VEGFR-2 domain 3 fused to Fc) (UniProt P17948 129-230; P35968 225-327).
T1 construct: also called VEGFR1/R2 trap; not shown: Fc segment
The test can be described thus: solid phase ELISA, VEGF/PIGF variant immobilised, VEGF-trap titrated 0.1 to 750 nM, Kd from saturation curve. As for the experimental part: ELISA style binding assays were performed as described previously (Agarwal et al., 2012). In brief, 10 µg/ml of recombinant VEGF, PIGF and their mutant variants were individually immobilized together with bovine serum albumin (BSA) on 96 well plate (Transparente Immuno Standardmodule, Thermo scientific, Denmark), while matrix loaded only with BSA served as a control. A binding saturation curve was generated by applying increasing concentrations of VEGFR1/R2 trap ranging from 0,1 to 750 nM, followed by detection of the ligand-receptor complex using a horseradish peroxidase (HRP)-conjugated antibody against the mouse Fc domain of VEGFR1/R2 trap. Luminescence was quantified at optical density (OD) 450 nm using a by spectrophotometer (Thermo ScientificMultiskan GO, Finland).

sFlt-1 (soluble splice variant of VEGF receptor 1) in human serum (human), sequence (P17948 other isoform, or with tags, fused parts or gaps mutant): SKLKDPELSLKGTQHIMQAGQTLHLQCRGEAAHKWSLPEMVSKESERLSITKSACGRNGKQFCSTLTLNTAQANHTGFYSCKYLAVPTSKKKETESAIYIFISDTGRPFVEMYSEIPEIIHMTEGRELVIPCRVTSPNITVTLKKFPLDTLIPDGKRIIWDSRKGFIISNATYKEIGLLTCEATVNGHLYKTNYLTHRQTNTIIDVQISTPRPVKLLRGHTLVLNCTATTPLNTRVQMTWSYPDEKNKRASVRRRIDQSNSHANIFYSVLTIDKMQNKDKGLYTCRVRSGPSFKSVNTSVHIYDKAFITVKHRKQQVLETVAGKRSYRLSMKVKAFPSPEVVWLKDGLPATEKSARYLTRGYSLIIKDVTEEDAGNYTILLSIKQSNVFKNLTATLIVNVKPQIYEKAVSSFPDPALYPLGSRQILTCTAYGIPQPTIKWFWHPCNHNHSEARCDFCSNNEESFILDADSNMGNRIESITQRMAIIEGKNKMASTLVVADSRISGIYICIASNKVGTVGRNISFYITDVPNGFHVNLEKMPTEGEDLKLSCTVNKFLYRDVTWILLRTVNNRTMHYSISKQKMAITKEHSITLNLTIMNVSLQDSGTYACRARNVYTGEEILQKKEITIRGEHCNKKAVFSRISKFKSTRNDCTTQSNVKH
T1 sequence (P17948 other isoform, or with tags, fused parts or gaps mutant): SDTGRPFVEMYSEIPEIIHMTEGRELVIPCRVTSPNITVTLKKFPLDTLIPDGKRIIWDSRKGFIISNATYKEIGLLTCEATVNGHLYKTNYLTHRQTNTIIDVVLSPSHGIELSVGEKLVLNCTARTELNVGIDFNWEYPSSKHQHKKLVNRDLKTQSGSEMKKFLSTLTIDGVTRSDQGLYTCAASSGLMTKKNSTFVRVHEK

On to “single chain VEGF^165 dimer (scVEGF^165) (from UniProt P49151 27-190) (ligand)”, for which, in test [1], the PIGF release (free PIGF in serum after against before the column) worked out at 20 fold; the PIGF release (free PIGF in serum after against before the column), median is 14.6 fold; the VEGF release (free VEGF in serum after against before the column) was found to be 9.07 fold; the VEGF release (free VEGF in serum after against before the column), median was found to be 8.74 fold. In test [2], this molecule gave a reduction of sFlt-1 in a single run of 86.2%. In test [3], this molecule returned a reduction of sFlt-1 in a single run of 89.9%. For the same molecule, in test [4], the sFlt-1 reduction (mean of 10 patient samples) turned out to be 88% and the sFlt-1 reduction (median of 10 patient samples) was determined as 92.2%.

B1: monomeric wildtype VEGF^165 (moVEGF^165) (ligand, human, UniProt P15692-4 27-191, looked up)
chain: APMAEGGGQNHHEVVKFMDVYQRSYCHPIETLVDIFQEYPDEIEYIFKPSCVPLMRCGGCCNDEGLECVPTEESNITMQIMRIKPHQGQHIGEMSFLQHNKCECRPKKDRARQENPCGPCSERRKHLFVQDPQTCKCSCKNTDSRCKARQLELNERTCRCDKPRR
notes: mature; Expressed from a monomeric construct in HEK293T cells; not shown: N-terminal Strep tag from the expression vector
Regarding B1, in test [3], the reduction of sFlt-1 in a single passage is 77.2%. Also, in test [5], the “fold higher affinity compared to moPIGF” value turned out to be 2.6 fold.

B2: monomeric PIGF (moPIGF) (ligand, UniProt P49763-2 19-149, looked up, not shown: small tags and cut ends)
chain: LPAVPPQQWALSAGNGSSEVEVVPFQEVWGRSYCRALERLVDVVSEYPSEVEHMFSPSCVSLLRCTGCCGDENLHCVPVETANVTMQLLKIRSGDRPSYVELTFSQHVRCECRPLREKMKPERCGDAVPRR
The molecule B2 gave a reduction of sFlt-1 in a single passage in test [3] of 46.2%.

(Values after patent publication US20230119290A1 (UNIVERSIT T ZU K LN, published 2023).)
